This test concerns the target human SIRPα (human, UniProt P78324 31-373). Briefly: Biacore (SPR), format not stated. (In general: Surface plasmon resonance follows binding to a sensor surface in real time, without labels.)

Sequence of human SIRPα (P78324 31-504): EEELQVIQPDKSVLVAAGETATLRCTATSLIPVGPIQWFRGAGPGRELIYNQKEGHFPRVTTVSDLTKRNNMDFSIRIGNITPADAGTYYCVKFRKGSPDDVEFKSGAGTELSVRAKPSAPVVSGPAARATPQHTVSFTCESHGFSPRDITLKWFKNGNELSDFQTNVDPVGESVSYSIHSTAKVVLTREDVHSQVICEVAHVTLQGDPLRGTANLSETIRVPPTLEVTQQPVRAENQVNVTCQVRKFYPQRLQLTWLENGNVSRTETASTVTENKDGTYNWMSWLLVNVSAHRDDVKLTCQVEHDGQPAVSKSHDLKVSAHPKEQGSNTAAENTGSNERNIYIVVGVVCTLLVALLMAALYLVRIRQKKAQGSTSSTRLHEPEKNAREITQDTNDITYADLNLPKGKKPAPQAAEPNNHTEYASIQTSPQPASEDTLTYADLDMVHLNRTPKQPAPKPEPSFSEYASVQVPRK

B1: Humanized KWAR23 anti-SIRPα antibody (antibody, V domains shown)
VH: EVQLVQSGAEVKKPGATVKISCKVSGFNIKDYYIHWVQQAPGKGLEWIGRIDPEDGETKYAPKFQDRATITADTSTDTAYMELSSLRSEDTAVYYCARWGAYWGQGTLVTVSS
VL: QIVLTQSPPTLSLSPGERVTLTCSASSSVSSSYLYWYQQKPGQAPKLWIYSTSNLASGVPARFSGSGSGTSYTLTISSLQPEDFAVYFCHQWSSYPRTFGAGTKLEIK
notes: The phagocytosis assays used HuKwar-G1, a human IgG1 with N297A; also called HuKwar-G1; HuKWar-G1
As to B1, binding was put at a Kd of 1.54 nM.

B2: Mouse KWAR23 anti-SIRPα antibody (antibody, V domains shown)
VH: EVQLQQSGAELVKPGASVKLSCTASGFNIKDYYIHWVQQRTEQGLEWIGRIDPEDGETKYAPKFQDKATITADTSSNTAYLHLSSLTSEDTAVYYCARWGAYWGQGTLVTVSS
VL: QIVLTQSPAIMSASPGEKVTLTCSASSSVSSSYLYWYQQKPGSSPKLWIYSTSNLASGVPARFSGSGSGTSYSLTISSMEAEDAASYFCHQWSSYPRTFGAGTKLELK
notes: also called mouse antibody; mKWAR
With B2, the affinity, expressed as Kd, was 1.18 nM.

(Values after US20200262918A1 (Stanford University, published 2020).)
